Data published in patent US20250382354A1.

How the values were obtained:
[1] = target: C-terminally truncated SARS-CoV-2 S protein (pSARS-CoV2-Strunc), ancestral (SARS-CoV-2) (UniProt P0DTC2); assay: cell-based or functional assay
HKU4 HR2 peptide (HKU4) = HKU4 HR2 peptide (HKU4) (UniProt A3EX94); assay: peptide ELISA
[2] = target: HKU24 HR2 peptide (HKU24); assay: peptide ELISA
[3] = target: SARS-CoV-2 HR2 peptide (SARS-CoV-2) (UniProt P0DTC2); assay: peptide ELISA
MHV HR2 peptide (MHV) = assay: peptide ELISA
HKU5 HR2 peptide (HKU5) = HKU5 HR2 peptide (HKU5) (UniProt A3EXD0); assay: peptide ELISA
[4] = target: CRCoV-240/05 HR2 peptide (CRCoV-240/05); assay: peptide ELISA
MERS S ectodomain (MERS) = assay: ELISA on coated S

S2P6 (antibody)
Ancestral Pseudovirus IC50 (on cells with [not given]) [1]: 23200 ng/mL
EC50 (HKU4 HR2 peptide (HKU4)): 9.75 ng/mL
EC50 [2]: 0.0101 µg/mL
EC50 [3]: 0.0166 µg/mL
EC50 (MHV HR2 peptide (MHV)): 0.0215 µg/mL
EC50 (HKU5 HR2 peptide (HKU5)): 0.0345 µg/mL
EC50 [4]: 0.0189 µg/mL
EC50 (MERS S ectodomain (MERS)): 0.066 µg/mL
